Target: murine Protein S (mouse) (UniProt Q08761)
Test: cell-based or functional assay

UniProt Q08761, sequence (Q08761 42-675): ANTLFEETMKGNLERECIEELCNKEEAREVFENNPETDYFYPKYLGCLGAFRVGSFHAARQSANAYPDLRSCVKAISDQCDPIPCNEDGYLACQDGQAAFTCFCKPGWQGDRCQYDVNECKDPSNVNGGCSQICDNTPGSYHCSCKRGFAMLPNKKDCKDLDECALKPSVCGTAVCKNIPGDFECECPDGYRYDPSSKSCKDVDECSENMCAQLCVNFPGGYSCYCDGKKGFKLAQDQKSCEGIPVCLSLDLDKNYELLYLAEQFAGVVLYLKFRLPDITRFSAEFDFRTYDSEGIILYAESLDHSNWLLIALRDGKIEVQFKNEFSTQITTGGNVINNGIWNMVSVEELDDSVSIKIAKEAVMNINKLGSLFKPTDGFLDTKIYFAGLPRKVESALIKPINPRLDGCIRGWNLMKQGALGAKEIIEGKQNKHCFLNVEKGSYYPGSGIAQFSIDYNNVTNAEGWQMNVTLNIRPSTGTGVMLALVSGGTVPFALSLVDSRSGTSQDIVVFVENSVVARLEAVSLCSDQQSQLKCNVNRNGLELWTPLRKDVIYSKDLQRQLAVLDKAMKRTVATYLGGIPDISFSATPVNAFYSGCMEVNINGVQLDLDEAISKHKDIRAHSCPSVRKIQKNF

Row | reduction of ETP in Ca2+ ionophore-activated PRP of WT mice at 8 nM APC [%] | Substance
1 | 30 | mutated recombinant mouse APC (rmAPC L38D) (from UniProt P33587 42-460) (enzyme)
2 | 90 | wild type recombinant mouse APC (wt-rmAPC) (from UniProt P33587 42-460) (enzyme)
